Target: T1, unlabeled Kv2.1 (human, UniProt Q14721 1-858)
T1 sequence (looked up): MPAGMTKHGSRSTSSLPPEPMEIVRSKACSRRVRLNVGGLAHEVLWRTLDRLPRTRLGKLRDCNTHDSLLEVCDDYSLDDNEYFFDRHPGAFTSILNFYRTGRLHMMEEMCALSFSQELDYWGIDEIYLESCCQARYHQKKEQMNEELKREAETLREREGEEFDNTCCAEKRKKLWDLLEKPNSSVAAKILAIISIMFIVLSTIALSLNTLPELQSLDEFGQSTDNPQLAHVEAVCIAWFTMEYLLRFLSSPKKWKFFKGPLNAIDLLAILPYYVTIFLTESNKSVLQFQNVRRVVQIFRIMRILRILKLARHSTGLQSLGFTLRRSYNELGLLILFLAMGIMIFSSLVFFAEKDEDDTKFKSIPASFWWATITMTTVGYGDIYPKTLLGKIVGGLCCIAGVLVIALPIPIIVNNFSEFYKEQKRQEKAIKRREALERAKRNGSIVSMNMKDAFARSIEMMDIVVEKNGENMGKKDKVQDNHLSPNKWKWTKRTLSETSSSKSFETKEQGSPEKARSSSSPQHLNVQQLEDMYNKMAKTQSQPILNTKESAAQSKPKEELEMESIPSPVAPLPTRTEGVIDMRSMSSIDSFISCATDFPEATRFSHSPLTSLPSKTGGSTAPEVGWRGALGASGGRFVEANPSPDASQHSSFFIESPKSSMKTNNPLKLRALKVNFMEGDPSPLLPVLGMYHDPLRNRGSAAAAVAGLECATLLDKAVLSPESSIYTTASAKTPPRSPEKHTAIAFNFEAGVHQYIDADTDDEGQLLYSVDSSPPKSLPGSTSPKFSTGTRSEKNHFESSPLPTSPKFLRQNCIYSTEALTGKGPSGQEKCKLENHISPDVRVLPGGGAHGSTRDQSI
Test: cell-based or functional assay

B1: C-terminally YFP-labeled KCNE5 (natural protein, human, UniProt Q9UJ90 1-142, looked up)
chain: MNCSESQRLRTLLSRLLLELHHRGNASGLGAGPRPSMGMGVVPDPFVGREVTSAKGDDAYLYILLIMIFYACLAGGLILAYTRSRKLVEAKDEPSQACAEHEWAPGGALTADAEAAAGSQAEGRRQLASEGLPALAQGAERV
fast component of the activation of Kv2.1/Kv6.4 heterotetramers on co-expression of (untagged) KCNE5 with Kv2.1 and Kv6.4 in HEK293 cells, between +20 mV and +70 mV (whole cell current recordings): ~2 fold
